The chains are these.
B1: E40 (antibody)
VH: QVQLRESGPSLVKPSQTLSLTCTASGFSLSDKAVGWVRQAPGKALEWLGGIDTGGNKDYNPGLKSRLSITKDNSKSQMSLSMSSVTTEDSATYYCTTVHQKTNTAKTCRDGHVDVSSCYGSSGCPRSGCCACRRWGGTACSICSSRIVTYTYEFHVDVWGQGLLVTVSS
VL: QAVLTQPSSVSGSLGQRVSITCSGSSSNVGNGYVSWYQLIPGSAPRTLIYGDTSRASGVPDRFSGSRSGNTATLTISSLQAEDEADYFCASPEDSSTNALFGSGTTLTVL
B2: E43 (antibody)
VH: QVQLRESGPSLVKPSQTLSLTCTASGFSLRDKAVGWVRHTPGKALEWIGSIDSSGNTGYNPGLKSRLSITKDNSKSQVSLSVSAVLSEDSATYYCTVVHQETRQEEGCPDGYLYDSRCGPGGGCSGRLCTRTPSARANDFCCTGRRIRTSTYQHHIDAWGQGLLVTVSS
VL: B1 VL with I40T, S54T, F63V, S68F, P92A, S95G, S96N, T97S, L100V
B3: F136 (antibody, V domains shown)
VH: QVQLRESGPSLVKPSQTLSLTCTVSGFSLSSKGVHWIRQAPGKALEWLGSTWSFGSAFNPALKSRLSITKDNSKSQVALSLSTVTPEDTATYYCARELYNGGSTWDAINGYNEERYYFDAWGQGLLVTVSS
VL: QAVLTQPSSVSGSLGQSVSITCSGSSSNVGYGNYVSWFQQIPGSAPRMLIYGATSRASGVPYRFSGSRSGNTATLTINSLQAEDEADYFCASPDSSSSGYFAVFGSGTTLTVL
B4: F128 (antibody, V domains shown)
VH: QVQLRESGPSLVKPSQTLSLTCTVSGFSLGTYTVTWVRQAPGKALEWVGEISGGGDTDYNPALKSRLSITKHNSKSQVSLSVSSVTPEDTATYYCARCYSTCGCGLSCTSEDSYYVNAWGQGLLVTVSS
VL: QAVLTQPSSVSGSLGQRVSITCSGSSSNIGSYNVGWYQQVPGSGLTTIIYGTNNRPSGVPDRFSGSKSGNTATLTISSLRAEDEADYFCVTYDSTSSTIFGTGTTLTVL
B5: B51 (antibody, V domains shown)
VH: QVQLRESGPSLVKPSQTLSLTCTVSGFSLSSYGVIWVRQAPGKALECLGQITTGGITGYNPALKSRLSITKDNSEGQVSLSLSSVTTEDTATYYCVKEHDNYGDFSGGCLHAAYVDTWGQGLLVTVSS
VL: QAVLTQPSSVSGSLGQRVSITCSGSSSNIGLYAVGWYQQVPGSGLRSIIYSSRSRPSGVPDRFSGSKSGNTATLTISSLQAEDEADYFCVAYDSSSDSAIFGSGTTLTVL
B6: A7 (antibody, V domains shown)
VH: QVQLRESGPSLVKPSQTLSLTCTVSGFSLSSYAVNWVRQAPGKALECLGGISSSGSTGYKPALKSRLSITKDNSKSQVSLSVSNVTPEDTATYYCVKSYWDYNDYGCCSGGNGVGFDAWGQGLLVTVSS
VL: QAVLTQPSSVSGSLGQRVSITCSGSSNNIGSYAVGWYQQVPGSGLRTIIYSSSSRPSGVPDRFSGSKSGNTATLTISSLQAEDEADYFCATADYSRSTAVFGSGTILTVL
B7: E10 (antibody, V domains shown)
VH: QVQLRESGPSLVKPSQTLSLTCTVSGFSLSSNGVVWVRQAPGKALEWVGCSRGEGSTFYNQALRSRLSITKDNSKSQVSLSVSSVTPEDTATYYCTKVYNGGCGRRGYDAAAYVDAWGQGLLVTVSS
VL: B6 VL with S25R, S31G, Y32N, A33G, S51G, R96S, S97G, I106T
B8: E9 (antibody, V domains shown)
VH: QVQLRESGPSLVKPSQTLSLTCTVSGFSLSNYAVSWVRQAPGKALECLGSISSDGNTGYNPALKSRLSITKDNSKSQVSLSVSSATPEDTATYYCTKCHYPGGCCGYWNDDHVDAWGQGLLVTVSS
VL: B6 VL with S19T, N27S, S31M, A33D, S51G, S77M, A90T, R96S, A99V, I106T
B9: E53 (antibody, V domains shown)
VH: QVQLRESGPSLVKPSQTLSLTCTVSGFSLSSYAVDWVRQAPGKALECLGGISRDGDISYNPALKSRLSITKDDSKSQVSLSLSSVTSEDTATYYCAKATDGGYFRSTYGCQGFTVNTYVDIWGQGFLVTVSS
VL: QAVLTQPSSLSGSLGQRVSITCSGSSGNIGTRDVSWYQQIPGSGLRTIIYGNSSRPSGVPDRFSGSRSGNTATLRIRSLQPEDEADYFCGSADYSSEIAVFGSGTTLTVL
B10: 60 (antibody, V domains shown)
VH: QVQLRESGPSLVKPSQTLSLTCTISGFSLSDATVGWVRQASGKALEWLGAIWPSGSTGYNLGLKSRLTITKDNSKTQVFLSLNSLTPEDTATYHCTGGGIGFIWGQGLLVTVSP
VL: QAVLTQPSSVSGSLGQRVSITCSGSPNNVGLGNFVSWFQQIPGSAPRSLIYGATSRVSGVPDRFSGSRSMNTATLTISSLQAEDEADYFCASYERNNTGVFGSGTTLTVL
B11: E32 (antibody, V domains shown)
VH: QVQLRESGPSLVKPSQTLSLTCTVSGFSLSNYALNWVRQAPGKALECLGGIGPSGHTDYNPALKSRLIITKDNSKNQVSLSVSSVTPEDTATYICARDSGIYGTSGWGCIGGFDDNYIDAWGHGLLVTVSS
VL: QAVLTQPSSVSGSLGQRVSITCSGSSNNIGAHGVGWYQQIPGSGLRTIIYNNSKRPSGVPDRFSGSKSGNTATLTISSLQAGDEADYFCATSDYSTRSSAFGSGTTLTVL
B12: B54 (antibody, V domains shown)
VH: QVQLRESGPSLVKPSQTLSLTCTVSGFSLSSNAVVRVRQAPGKTLEWLGGICSGGATSFNPALKSRLSITKDNSKSQVSLSVSSVTPEDTATYYCMRVGSCFGCGDRCGYGYPYTYVDVWGQGLLVTVSP
VL: QAVLTQPSSVSGSLGQRVSITCSGSSSNVGTGNYVSWFQQIPGSAPRTLIYGATSRASGVPDRFSGSRSGNTATLTISSLQAEDEADYFCASYQIGNTAVFGSGTTLTVL
B13: E12 (antibody, V domains shown)
VH: QVQLRESGPSLVKPSQTLPLTCTVSGFSLSDYGVGWVRQAPGKALEWLGVIYYAGRTVYNPALKSRLSITKDNSKSQISLSLSSVITEDTATYYCTRCYEDYYYDCIDWGHRYDLWGQGLLVTVSS
VL: B12 VL with S36T, T48I, T54S, A57V, A91T, Q94E, I95S, G96D, N97Y
B14: B59 (antibody, V domains shown)
VH: QVQLRESGPSLVKPSQTLSLTCTVSGFSLSDYAVGWVRQAPGKALEWVGGISSGGTTCSKPALKSRLSITRDSSKSQVSLFVTSMTPEDTATYYCAKYFRHDYDVGCSYIMEAVDAWGQGLLVTVSS
VL: QAVLTQPSSVSGSLGQRVSITCSGSSSNVGRGNYVNWFQQIPGSAPRTLIYGATSRASGVPNRFSGSRSGNTATLTISSLQAEDEADYFCAVWDDNIRNAVFGSGTTLILL
B15: E11 (antibody, V domains shown)
VH: QVQLRESGPSLVKPSQTLSLTCTVSGFSLNSYAVTWVRQAPGKALECLGSIGSRGGTGYNQALKSRLSITKNNSKSQVSLSVRSVTPEDTATYYCVKESGSGYWDDACWGFGVGDDYVDTWGHGLLVTVST
VL: QAVLTQPSSVSGSLGQRVSITCSGSSSNVGRGNYVSWFQQLPGAAPRTLIYAATSRASGVPDRFSGSRSGNTATLTISSLQAEEEAYYFCAVYDTSSKAAVFGSGTTLTVL
B16: E16 (antibody)
VH: QVQLRESGPSLVKPSQTLSLTCTVSGFSLSDKAVGWVRQAPGKALEWLGSIDGGEKTTYNPGLKSRLSITKDNSKNQVSLSVSSVSTEDSATYYCSIVYQKRERKCPDGYRPGTFCGSGINARDCRYDGCYASEHWQCCDTYTPGTSAYNFHIDAWGQGLLVTVSS
VL: B1 VL with N31K, L39R, G51D, A81V, P92A, D94G, T97S, L100V
B17: B64 (antibody, V domains shown)
VH: QVQLRESGPSLVKPSQTLSLTCTVSGFSLSNYDVAWVRQPPGKALECLGGVSISGRTDYNPALKSRLSITKDNSKNQVSLSLSSVTTEDTATYYCAKFFGDYGYDYYGCGYGAGDHYVDAWGQGLLVAVSS
VL: B1 VL with P92A, D94G, T97S, L100G, T108I
B18: B81 (antibody, V domains shown)
VH: QVQLRESGPSLVKPSQTLSLTCTVSGFSLSNYAIGWVRQAPGKAPEWVVDTDVDGGTAYNPALKSRLSITKDNSKSQVSLSLNGVTPEDTATYYCVKLSRESAWLFFHVDAWGQGLLITISS
VL: QAVLTQPSSVSGSLGQSVSITCSGSSGNIGRYGVDWYQQVPGSGLRTIIYASSRRPSGVPDRFSGSKSGNTATLTISSLQAEDEADYFCAGGDENIIVPLFGAGTTLTVL
notes: also called HRP-B81
B19: E28 (antibody, V domains shown)
VH: QVQLRESGPSLVKPSQTLSLTCTISGFSLSDYAVAWVRQAPGKAPEWVGGISTGGRTNYNPTLESRLSITKDNAKSQISLTVSSVTPEDTATYLCLRLACYDHEGYRCFGYDLNWGVDAWGQGLLVSVSS
VL: QAVLTQPSSVSGSLGQRVSITCSGSSTNIGTYYVGWYQQVPGSGLRTIIYGTTNRPSGVPDRFSGSKSSGNTATLTISSLQAEDEADYFCVTYDSTITPSAVFGSGTTLTVL
B20: 62 (antibody, V domains shown)
VH: QVQLRESGPSLVKPSQTLSLTCTVSGFSLSDKDVGWVRQAPGTALEWLAVIYNAGSTSYNPTLESRLSITKDNSKSQVSLSLSSVTTEDTATYYCALGNYWAWGQGLLVTVSS
VL: QAALTQPSSVSGSLGQRVSITCSGSSSNIGRGNYVNWFQQIPGSAPRTLIYGATNRASGVPDRFSGSRSGDTATLTISPLQAEDEADYFCAAYDINGNAVFGSGTTLTVL

The source of these data is publication PMC6908506, “Development of Foot-and-Mouth Disease Virus-Neutralizing Monoclonal Antibodies Derived From Plasmablasts of Infected Cattle and Their Germline Gene Usage” (Frontiers in Immunology, 2019).

Substitutions are numbered along the chain they refer to.

The first experiment addresses T1, FMDV O/Mya/98 146S antigen (Foot-and-mouth disease virus serotype …, UniProt G8JKC2, strain).
T1 construct: also called purified virus antigen; copies: + + +
As to the kind of experiment: immunostaining of cells or tissue. The settings on record: one partner purified.
For the molecule B1, the binding result is “binds”. On the same count and under the same terms, in the case of B2 it was “binds”.

The target of a further experiment is T1, FMDV O/Mya/98 146S antigen. The experiment is described as follows: cell-based or functional assay.
Settings: not given
As to B3, the “virus neutralizing test on BHK-21 cells, IC50” value worked out at 1.67 µg/mL.

Take B4: the “virus neutralizing test on BHK-21 cells, IC50” value was found to be 0.98 µg/mL.

The next experiment concerns the target T1, FMDV O/Mya/98 146S antigen. The experiment is described as follows: ELISA. The settings on record: both partners purified. A general note: An ELISA detects its analyte on a solid surface through an enzyme-linked reagent.
Consider B5, for which the binding result is “binds”. Regarding B6, the binding result was “binds”. The same measure, in the same setting: the same measure for B7: “binds”. Still for that read-out and setting: the same measure for B8: “binds”; for B9: “binds”; for B10: “binds”.

Take B11: the binding result was “binds”. Still for that read-out and setting: in the case of B12 it was “binds”; in that of B13, “binds”. Take B14: the binding result was “binds”.

As for B15, the binding result is “binds”. On the same count and under the same terms, the same measure for B16: “binds”; for B17: “binds”. The same measure, in the same setting: in the case of B18 it was “binds”; in that of B19, “binds”; in that of B20, “binds”.
